Experimental data: US20140274782A1, “AFFINITY REAGENTS AND METHODS FOR DETECTION, PURIFICATION, AND PROTEOMIC ANALYSIS OF METHYLATED PROTEINS” (The Board of Trustees of the Leland Stanford Junior …, priority 2013, published 2014)

Assays:
Experiment in all cases: ProtoArray, G9a array SNR minus GST array SNR
[1] = biological target: C12orf62, G9a-methylated (human) (UniProt Q96I36)
[2] = biological target: C2orf43, G9a-methylated (human) (UniProt Q9H6V9)
[3] = biological target: CCL24, G9a-methylated (human) (UniProt O00175)
[4] = biological target: CDC2, G9a-methylated (human) (UniProt P06493)
[5] = biological target: CDK10, G9a-methylated (human) (UniProt Q15131)
[6] = biological target: CLDN15, G9a-methylated (human) (UniProt P56746)
[7] = biological target: CNTD1, G9a-methylated (human) (UniProt Q8N815)
[8] = biological target: CRYZL1, G9a-methylated (human) (UniProt O95825)
[9] = biological target: CTXN1, G9a-methylated (human) (UniProt P60606)
[10] = biological target: DYNC2LI1, G9a-methylated (human) (UniProt Q8TCX1)
[11] = biological target: FKBP14, G9a-methylated (human) (UniProt Q9NWM8)
[12] = biological target: FTL, G9a-methylated (human) (UniProt P02792)
[13] = biological target: GGPS1, G9a-methylated (human) (UniProt O95749)
[14] = biological target: HPCAL4, G9a-methylated (human) (UniProt Q9UM19)
[15] = biological target: HS3ST1, G9a-methylated (human) (UniProt O14792)
[16] = biological target: KCTD7, G9a-methylated (human) (UniProt Q96MP8)
[17] = biological target: KIFC1, G9a-methylated (human) (UniProt Q9BW19)
[18] = biological target: LARP6, G9a-methylated (human) (UniProt Q9BRS8)
[19] = biological target: LYPLAL1, G9a-methylated (human) (UniProt Q5VWZ2)
[20] = biological target: LYRM7, G9a-methylated (human) (UniProt Q5U5X0)
[21] = biological target: Magmas, G9a-methylated (human) (UniProt Q9Y3D7)
[22] = biological target: NME1, G9a-methylated (human) (UniProt P15531)
[23] = biological target: NME7, G9a-methylated (human) (UniProt Q9Y5B8)
[24] = biological target: PAEP, G9a-methylated (human) (UniProt P09466)
[25] = biological target: PHF20L1, G9a-methylated (human) (UniProt A8MW92)
[26] = biological target: PPIL5, G9a-methylated (human) (UniProt Q96L50)
[27] = biological target: RAB33B, G9a-methylated (human) (UniProt Q9H082)
[28] = biological target: SCGB1A1, G9a-methylated (human) (UniProt P11684)
[29] = biological target: SMYD3, G9a-methylated (human) (UniProt Q9H7B4)
[30] = biological target: SSR4, G9a-methylated (human) (UniProt P51571)
[31] = biological target: STK17B, G9a-methylated (human) (UniProt O94768)
[32] = biological target: TCTA, G9a-methylated (human) (UniProt P57738)
[33] = biological target: TGDS, G9a-methylated (human) (UniProt O95455)
[34] = biological target: TMED5, G9a-methylated (human) (UniProt Q9Y3A6)
[35] = biological target: TMEM32, G9a-methylated (human) (UniProt Q8N4V1)
[36] = biological target: TMEM97, G9a-methylated (human) (UniProt Q5BJF2)
[37] = biological target: TTC27, G9a-methylated (human) (UniProt Q6P3X3)
[38] = biological target: UBE2D2, G9a-methylated (human) (UniProt P62837)
[39] = biological target: YPEL5, G9a-methylated (human) (UniProt P62699)
[40] = biological target: ZNF695, G9a-methylated (human) (UniProt Q8IW36)

Sequence of PPIL5, G9a-methylated (human) (Q96L50 whole entry): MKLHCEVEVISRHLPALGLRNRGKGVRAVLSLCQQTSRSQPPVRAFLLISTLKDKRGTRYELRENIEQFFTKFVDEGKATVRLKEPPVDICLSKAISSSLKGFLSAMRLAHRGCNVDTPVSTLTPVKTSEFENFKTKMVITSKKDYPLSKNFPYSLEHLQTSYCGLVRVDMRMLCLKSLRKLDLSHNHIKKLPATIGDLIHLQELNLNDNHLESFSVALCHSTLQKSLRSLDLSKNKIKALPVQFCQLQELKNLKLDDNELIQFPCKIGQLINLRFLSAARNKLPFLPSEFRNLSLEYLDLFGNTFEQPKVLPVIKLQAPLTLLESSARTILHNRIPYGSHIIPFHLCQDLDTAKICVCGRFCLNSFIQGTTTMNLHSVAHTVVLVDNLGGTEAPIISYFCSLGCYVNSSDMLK
Sequence of SCGB1A1, G9a-methylated (human) (P11684 22-91 limits assumed): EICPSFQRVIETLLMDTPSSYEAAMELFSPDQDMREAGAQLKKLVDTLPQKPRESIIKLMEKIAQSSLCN
Sequence of TMEM97, G9a-methylated (human) (Q5BJF2 whole entry): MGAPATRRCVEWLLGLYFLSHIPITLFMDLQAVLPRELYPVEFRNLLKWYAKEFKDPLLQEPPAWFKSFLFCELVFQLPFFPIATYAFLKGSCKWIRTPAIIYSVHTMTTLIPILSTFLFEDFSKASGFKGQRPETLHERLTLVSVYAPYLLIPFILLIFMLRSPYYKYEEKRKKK
Sequence of CTXN1, G9a-methylated (human) (P60606 whole entry): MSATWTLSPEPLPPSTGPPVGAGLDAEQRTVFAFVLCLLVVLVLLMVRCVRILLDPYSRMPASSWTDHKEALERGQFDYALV
Sequence of Magmas, G9a-methylated (human) (Q9Y3D7 whole entry): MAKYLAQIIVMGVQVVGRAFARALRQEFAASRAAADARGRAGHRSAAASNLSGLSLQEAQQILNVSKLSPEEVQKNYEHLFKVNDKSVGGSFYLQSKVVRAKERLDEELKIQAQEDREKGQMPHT
Sequence of KIFC1, G9a-methylated (human) (Q9BW19 whole entry): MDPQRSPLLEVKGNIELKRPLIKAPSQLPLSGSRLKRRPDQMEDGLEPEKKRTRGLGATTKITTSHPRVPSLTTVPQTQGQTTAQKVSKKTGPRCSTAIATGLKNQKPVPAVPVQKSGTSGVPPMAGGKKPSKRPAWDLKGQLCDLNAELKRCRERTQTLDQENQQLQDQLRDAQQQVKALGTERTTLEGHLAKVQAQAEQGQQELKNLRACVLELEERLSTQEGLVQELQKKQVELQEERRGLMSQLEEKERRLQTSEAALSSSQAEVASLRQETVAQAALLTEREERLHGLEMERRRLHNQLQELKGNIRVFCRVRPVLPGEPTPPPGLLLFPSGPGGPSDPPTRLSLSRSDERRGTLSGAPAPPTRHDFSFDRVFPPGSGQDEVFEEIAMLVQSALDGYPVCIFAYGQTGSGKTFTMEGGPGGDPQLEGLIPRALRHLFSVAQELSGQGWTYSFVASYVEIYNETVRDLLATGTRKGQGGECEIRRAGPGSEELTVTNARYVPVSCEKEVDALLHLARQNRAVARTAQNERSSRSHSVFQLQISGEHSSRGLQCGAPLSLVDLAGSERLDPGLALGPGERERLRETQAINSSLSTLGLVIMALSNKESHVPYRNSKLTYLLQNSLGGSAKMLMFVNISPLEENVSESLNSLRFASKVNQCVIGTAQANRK
Sequence of TGDS, G9a-methylated (human) (O95455 whole entry): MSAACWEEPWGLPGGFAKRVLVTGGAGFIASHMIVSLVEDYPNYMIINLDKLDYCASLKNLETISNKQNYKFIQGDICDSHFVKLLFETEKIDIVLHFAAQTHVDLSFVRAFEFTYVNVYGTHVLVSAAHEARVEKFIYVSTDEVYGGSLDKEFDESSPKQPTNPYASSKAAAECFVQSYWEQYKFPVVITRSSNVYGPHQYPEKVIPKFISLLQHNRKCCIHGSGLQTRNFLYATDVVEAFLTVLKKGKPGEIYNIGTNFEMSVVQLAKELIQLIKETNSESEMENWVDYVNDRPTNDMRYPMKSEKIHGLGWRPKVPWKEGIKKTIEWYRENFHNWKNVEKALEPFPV
Sequence of CLDN15, G9a-methylated (human) (P56746 whole entry): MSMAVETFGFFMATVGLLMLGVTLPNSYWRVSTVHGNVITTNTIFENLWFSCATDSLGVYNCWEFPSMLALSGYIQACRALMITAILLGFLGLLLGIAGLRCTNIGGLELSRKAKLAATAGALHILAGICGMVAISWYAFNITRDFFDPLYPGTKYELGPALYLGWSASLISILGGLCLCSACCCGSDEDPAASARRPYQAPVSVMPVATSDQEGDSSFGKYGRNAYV
Sequence of RAB33B, G9a-methylated (human) (Q9H082 whole entry): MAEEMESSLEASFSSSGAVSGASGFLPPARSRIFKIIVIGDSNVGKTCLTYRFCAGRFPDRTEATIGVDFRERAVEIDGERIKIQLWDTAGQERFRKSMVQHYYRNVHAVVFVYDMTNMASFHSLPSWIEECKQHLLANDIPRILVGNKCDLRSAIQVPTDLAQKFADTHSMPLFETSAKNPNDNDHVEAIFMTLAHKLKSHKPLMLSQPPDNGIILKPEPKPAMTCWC
Sequence of C12orf62, G9a-methylated (human) (Q96I36 whole entry): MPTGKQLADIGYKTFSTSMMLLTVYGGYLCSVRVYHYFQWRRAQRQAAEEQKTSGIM
Sequence of YPEL5, G9a-methylated (human) (P62699 whole entry): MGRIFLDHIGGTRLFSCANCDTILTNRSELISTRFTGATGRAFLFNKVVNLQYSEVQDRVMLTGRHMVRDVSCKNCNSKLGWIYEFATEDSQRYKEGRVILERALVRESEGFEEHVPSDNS
Sequence of LYPLAL1, G9a-methylated (human) (Q5VWZ2 whole entry): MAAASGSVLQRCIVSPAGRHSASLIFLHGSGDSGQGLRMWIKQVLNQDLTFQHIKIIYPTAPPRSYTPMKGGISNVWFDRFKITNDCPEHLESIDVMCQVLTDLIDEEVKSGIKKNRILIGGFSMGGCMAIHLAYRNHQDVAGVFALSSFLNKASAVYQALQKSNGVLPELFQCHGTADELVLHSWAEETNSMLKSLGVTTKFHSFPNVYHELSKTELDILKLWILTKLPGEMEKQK
Sequence of CCL24, G9a-methylated (human) (O00175 27-119 limits assumed): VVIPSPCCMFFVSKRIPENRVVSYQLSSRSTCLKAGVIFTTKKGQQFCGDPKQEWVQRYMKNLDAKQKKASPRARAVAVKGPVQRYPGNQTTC
Sequence of SMYD3, G9a-methylated (human) (Q9H7B4 whole entry): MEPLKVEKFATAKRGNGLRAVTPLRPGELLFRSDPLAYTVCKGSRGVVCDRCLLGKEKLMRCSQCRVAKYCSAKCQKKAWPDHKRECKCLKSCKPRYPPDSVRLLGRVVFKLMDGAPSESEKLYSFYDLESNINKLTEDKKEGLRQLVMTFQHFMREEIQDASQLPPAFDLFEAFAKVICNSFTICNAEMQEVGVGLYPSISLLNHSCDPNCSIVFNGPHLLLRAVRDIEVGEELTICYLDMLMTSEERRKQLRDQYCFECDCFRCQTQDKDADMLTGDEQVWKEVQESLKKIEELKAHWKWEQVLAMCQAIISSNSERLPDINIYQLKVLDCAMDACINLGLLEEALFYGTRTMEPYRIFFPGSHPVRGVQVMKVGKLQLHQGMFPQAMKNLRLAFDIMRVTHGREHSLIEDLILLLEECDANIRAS
Sequence of SSR4, G9a-methylated (human) (P51571 24-173 limits assumed): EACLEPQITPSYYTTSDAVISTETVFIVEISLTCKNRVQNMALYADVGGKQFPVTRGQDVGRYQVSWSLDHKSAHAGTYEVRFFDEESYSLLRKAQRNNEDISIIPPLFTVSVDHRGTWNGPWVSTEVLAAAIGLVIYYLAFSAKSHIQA
Sequence of GGPS1, G9a-methylated (human) (O95749 whole entry): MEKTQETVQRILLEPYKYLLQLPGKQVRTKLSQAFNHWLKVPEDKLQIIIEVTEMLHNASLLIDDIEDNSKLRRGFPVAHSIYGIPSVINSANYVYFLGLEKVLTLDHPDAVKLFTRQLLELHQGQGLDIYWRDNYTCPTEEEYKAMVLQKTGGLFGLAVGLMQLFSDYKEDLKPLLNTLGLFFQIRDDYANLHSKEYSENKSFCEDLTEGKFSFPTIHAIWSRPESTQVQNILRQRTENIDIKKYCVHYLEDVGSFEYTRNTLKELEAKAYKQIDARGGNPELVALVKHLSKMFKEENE
Sequence of TCTA, G9a-methylated (human) (P57738 whole entry): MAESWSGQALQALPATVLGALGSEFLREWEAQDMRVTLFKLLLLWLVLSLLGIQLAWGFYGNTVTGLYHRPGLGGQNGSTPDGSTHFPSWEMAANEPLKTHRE
Sequence of CNTD1, G9a-methylated (human) (Q8N815 whole entry): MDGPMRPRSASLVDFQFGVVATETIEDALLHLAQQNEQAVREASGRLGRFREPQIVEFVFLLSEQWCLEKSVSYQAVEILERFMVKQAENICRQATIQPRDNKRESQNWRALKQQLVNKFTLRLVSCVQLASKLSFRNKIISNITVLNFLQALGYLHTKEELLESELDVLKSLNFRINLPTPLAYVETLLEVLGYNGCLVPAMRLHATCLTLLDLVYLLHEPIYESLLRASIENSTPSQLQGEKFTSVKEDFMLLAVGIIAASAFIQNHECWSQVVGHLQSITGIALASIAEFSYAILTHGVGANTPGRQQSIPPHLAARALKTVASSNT
Sequence of PHF20L1, G9a-methylated (human) (A8MW92 other isoform, or with tags, fused parts or gaps limits assumed): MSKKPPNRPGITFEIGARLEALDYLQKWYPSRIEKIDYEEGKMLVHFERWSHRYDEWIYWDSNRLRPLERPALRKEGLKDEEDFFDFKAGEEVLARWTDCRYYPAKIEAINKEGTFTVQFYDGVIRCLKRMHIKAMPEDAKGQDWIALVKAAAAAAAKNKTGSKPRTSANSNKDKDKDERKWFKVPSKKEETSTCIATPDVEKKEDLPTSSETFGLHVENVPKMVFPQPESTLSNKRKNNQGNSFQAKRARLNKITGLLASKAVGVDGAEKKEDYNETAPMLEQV
Sequence of FTL, G9a-methylated (human) (P02792 whole entry): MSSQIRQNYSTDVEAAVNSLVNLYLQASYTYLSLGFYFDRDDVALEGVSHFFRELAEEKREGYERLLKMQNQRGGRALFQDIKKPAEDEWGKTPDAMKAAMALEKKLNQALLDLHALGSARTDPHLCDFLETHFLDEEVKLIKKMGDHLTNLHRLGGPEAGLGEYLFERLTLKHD

For 3× Flag-3×MBT (designed binder), the G9a-GST [1] was 14.3, the G9a-GST [2] was 12.1 and the G9a-GST [3] was 34.4. It also gave a G9a-GST [4] of 26, a G9a-GST [5] of 13.2 and a G9a-GST [6] of 25.3. For the same substance, the G9a-GST [7] was 12.2, the G9a-GST [8] was 12.6 and the G9a-GST [9] was 18.7. For the same substance, the G9a-GST [10] was 12.4, the G9a-GST [11] was 13.7 and the G9a-GST [12] was 33.5. For the same substance, the G9a-GST [13] was 12.8, the G9a-GST [14] was 12.3 and the G9a-GST [15] was 13.2. It also gave a G9a-GST [16] of 13.7, a G9a-GST [17] of 62.4 and a G9a-GST [18] of 16.6. The G9a-GST [19] was 15.6, the G9a-GST [20] was 16.9 and the G9a-GST [21] was 15.1. For the same substance, the G9a-GST [22] was 14.1, the G9a-GST [23] was 13.6 and the G9a-GST [24] was 16.5. The G9a-GST [25] was 20.4, the G9a-GST [26] was 12.4 and the G9a-GST [27] was 20.2. The G9a-GST [28] was 18.4, the G9a-GST [29] was 16.3 and the G9a-GST [30] was 13. For the same substance, the G9a-GST [31] was 13.8, the G9a-GST [32] was 15.2 and the G9a-GST [33] was 12.4. The G9a-GST [34] was 15.5, the G9a-GST [35] was 12.1 and the G9a-GST [36] was 22.8. For the same substance, the G9a-GST [37] was 20.2, the G9a-GST [38] was 37.6 and the G9a-GST [39] was 14.2. For the same substance, the G9a-GST [40] was 18.8.
